Data on 76 variants can be found in the RNAGym collection of RNA variant scans (doi:10.7554/elife.80360).

First the molecules themselves.
B1: Hairpin Ribozyme (parent)
chain: GUCCUCUUUCACGUGCGCGUGAAAGAGAGAAGUGAACCAGAGAAACACACGUUGUGGUAUAUUACCUGGUA

Variants of B1 are the subject of this series. Description: self-cleavage, relative activity (ratio to wild type); higher = more cleavage; co-transcriptional.
Regarding GUCCUCUUUCACGUGCGCGUGAAAAAGAGAAGUCAACCAGAGAAACACACGUUGUGGUAUAUUACCUGGUA, the self-cleavage is 1.34.

Consider GUCCUCUUUCACGUGCGCGUGAAAUAGAGAAGUGAACCAGAGAAACACACGUUGCGGUAUAUUACCUGGUA, for which the self-cleavage was determined as 0.205. For GUCCUCUUUCACGUGCGCGUGCAAGAGAGAAGUGAACCAGAGAAACACACGUUGUGGUAUAAUACCUGGUA, the self-cleavage was 0.128. For the variant GUCCUCUUUCACGUGCGCGUGAAAGAGAGAAGUGAACCAGAGAAACACACGUUGUGGUAUUUUACCUGGCA, the self-cleavage came out at 0.231. In the case of GUCCUCUUUCACGUGCGCGUGAAAGAGAGAACUGAACCAGAGAAAUACACGUUGUGGUAUAUUACCUGGUA, the self-cleavage turned out to be 0.109. Regarding AUCCUCUUUCACGUGCGCGUGAAAGAGAGAAGUGAACCAGAGAAACACACGUUGUGGUAGAUUACCUGGUA, the self-cleavage stood at 0.194.

Consider GUCCUCUUUCACGUACGCGUGAAAGAGAGAAGUGAACCAGUGAAACACACGUUGUGGUAUAUUACCUGGUA, for which the self-cleavage turned out to be 1.26. To GUCCUCUUUCACGUGCGCGUGAAAGAGAGAAGUGAACUAGAGAAACACACGUUGUCGUAUAUUACCUGGUA belongs 0.171; to GUCCUCCUUCACGUGCGCGUGAAAGAGAGAAGUGAACCAGAGAAACACUCGUUGUGGUAUAUUACCUGGUA, 0.135.

GUCUUCUUUCACGUGCGCGUGAAAGAGAGAAGUGAACCAGAGAAACACACGUUGUGGUAUAUUUCCUGGUA: the self-cleavage was determined as 0.205.

For GUCCUCUUUCACGUGCGCGAGAAAGAGAGAAGUGAACCAGAGAAACACACGUUGUGGUAUAUCACCUGGUA, the self-cleavage was found to be 0.147.

For the variant GUCCUCUUUCACGUGCGCGUGAAAGAGAGAAGUGAACCUGAGAAACACACGUUGUGGUAUAUUACUUGGUA, the self-cleavage was found to be 0.213. To GUCCUCUUUCAUGUGCGCGUGAAAGAGAGAAGUGAAGCAGAGAAACACACGUUGUGGUAUAUUACCUGGUA belongs 0.27; to GUCCUCUUUCACGUGCGCGUGAAAGAGAGUAGUGAACCAGAAAAACACACGUUGUGGUAUAUUACCUGGUA, 0.11.

For GUCCUCUUUCACGAGCGCGUGAAAGAGAGAAGUGAACCAGAGAAACACACGUCGUGGUAUAUUACCUGGUA, the self-cleavage amounted to 1.07. As for GUCCUCUUGCACGUGCGCGUGAAAGAGAGAAGUGAACCAGAGAAACACACGUUGUGCUAUAUUACCUGGUA, the self-cleavage is 0.232. To GUCCUCUUUCACGUGCGCGUGAAAGAGAGAAGUGAACCAGAGAACCACAGGUUGUGGUAUAUUACCUGGUA belongs 0.211; to GUCCUCUUUCACGUGCGCGUGAAAGAGAGAAGUGAACCAGAGAAACACACGUUGGGAUAUAUUACCUGGUA, 0.0886; to GUCCUCUUUCACGUGCGCGUGAAAGAGAGCAGUGAACCAGAGAAACACACGUUGCGGUAUAUUACCUGGUA, 0.161. Take GUCCUCUUUCACGUGCGCGUGAAAGUGAGAAGUGAACCAGAGAAACACAAGUUGUGGUAUAUUACCUGGUA: the self-cleavage worked out at 0.209. For the variant GUCCUCAUUCACGUGCGCGUGAAAGAGAGUAGUGAACCAGAGAAACACACGUUGUGGUAUAUUACCUGGUA, the self-cleavage was 0.0668. In the case of GUCCACUUUCACGUGCGCGUGAAAGAGAGAAGUGAACCAGAGAAACUCACGUUGUGGUAUAUUACCUGGUA, the self-cleavage turned out to be 0.0694. With GUCCUCUUUCACGUGCGUGUGAAAGAGAGAAGUGAACCAGAGAAACACACGUUGUGGUAUAUUACCUGGUG, the self-cleavage was 1.09.

Consider GUCCUCUUUCCCGUGCGUGUGAAAGAGAGAAGUGAACCAGAGAAACACACGUUGUGGUAUAUUACCUGGUA, for which the self-cleavage turned out to be 0.94.

Regarding GUCCUCUUUCACGUGUGCGUGAAAGAGAGAAGUGAACCAGAGAAAAACACGUUGUGGUAUAUUACCUGGUA, the self-cleavage came out at 0.177. Turning to GUCCUCUUUCACGUGCGCGUGAAAGAGAGAAGUGAACCAGAGAAGCACACGUUGUGGUAUAUCACCUGGUA, the self-cleavage turned out to be 0.0324. In the case of GUCCUCUUUCACGUGCGCGUGCAAGAGAGAAGUGAACCAGAGAAACACACUUUGUGGUAUAUUACCUGGUA, the self-cleavage is 0.919. To GUCCUCUUUCACGUGCGCGUGAAAGACAGAAGUGAAGCAGAGAAACACACGUUGUGGUAUAUUACCUGGUA belongs 0.239; to GUCCUCUUUCACGUGUGCGUGAAAGAGAGAAGUGAACCAGAGAAACACACGUUGGGGUAUAUUACCUGGUA, 0.219. Consider CUCCUCUUUCACGUGCGCGUCAAAGAGAGAAGUGAACCAGAGAAACACACGUUGUGGUAUAUUACCUGGUA, for which the self-cleavage was 0.378. On to GUCCUCUUUCACGUGCGCGUGAAAGAGAGAAGUGAACCAGAGAAACAAACGUUGUGGUAUAUUAUCUGGUA, for which the self-cleavage turned out to be 0.189. To GUCCUCUUUCACGUGCGAGUGAAAGAGAGAAGUGAACCAGAUAAACACACGUUGUGGUAUAUUACCUGGUA belongs 0.369.

In the case of GGCCUCUUUCACGUGCGCGUGAAAGAGAGAAGUGAACCAGAGAAACACACAUUGUGGUAUAUUACCUGGUA, the self-cleavage turned out to be 0.306. Turning to GUCCUCUGUCACGUGCGCGUGAAAGAGAGAAGUGAACCAGAGAAACACACGUUCUGGUAUAUUACCUGGUA, the self-cleavage worked out at 0.313.

Regarding GUCCUCUUUCACGUGCGCGUGAAUGAGAGAAGUGAACCAGAGAAACACACGUUGUGGUAUAUUAGCUGGUA, the self-cleavage stood at 0.302. The result for GUCCUCUUUCACGUGCGCGUGAAAGAGAGAAGUGAACCAGAGAAACACACGAUGUGGUAUAUUACCUGCUA reads 0.268; that for GUCCUCUUUCACAUGCGCGCGAAAGAGAGAAGUGAACCAGAGAAACACACGUUGUGGUAUAUUACCUGGUA, 0.902. As for GUCCUCUUUCUCGUGCGCGUGAAAGAGAGAAGUGAACCAGAAAAACACACGUUGUGGUAUAUUACCUGGUA, the self-cleavage was found to be 0.136. To UUCCUCUUUCACGUGCGCGUGAAGGAGAGAAGUGAACCAGAGAAACACACGUUGUGGUAUAUUACCUGGUA belongs 0.0236; to GUCCUCUUACACGUGCGCGUGAAAGAGAGAAGUGAACCGGAGAAACACACGUUGUGGUAUAUUACCUGGUA, 0.201. In the case of GUCCUCUUUCACGUGCGCGUGAAAGAGAGAAGUGAACCAGAGAAACACACGUUGUGGUAUAUUACCGGGUA, the self-cleavage turned out to be 0.28. Take GUCCUCUUUCACGUGCGCGUGAAAGACAGAGGUGAACCAGAGAAACACACGUUGUGGUAUAUUACCUGGUA: the self-cleavage amounted to 0.124. Regarding GUCCUCUUUCACGUGCGCGUGAAUGAGAGAAGUGAACCAGAGAAACACACGUUGUGGGAUAUUACCUGGUA, the self-cleavage is 0.483. To GUCCUCUUUCACGUGCGCGUGAAAGACAGAAGUGAACCAGAGAAACACACGUUGUGGUAUAUUACCAGGUA belongs 0.104. Take GUCCUCUUUCACGUGCGCGUGAAAGAGAGAAGUGAACCAGAGAAACACACGUUGUGGUAUAUCCCCUGGUA: the self-cleavage was 0.224.

On to GCCCUCUUUCACGUGCGCGUGAAAGAGAGAAGUGAACCAGAGAAACACACGUUGUGGUAUAUCACCUGGUA, for which the self-cleavage was 0.109.

Regarding GUCCUCUUUCACGUGCGCGUGAAAGAGAGAAGUGUACCAGAGAAACACACGUUGUGGUAUAUUACAUGGUA, the self-cleavage was determined as 0.154. To GUCCUCUUUCACGUGCGCGUGAAAGAGAGAAGUGAACCAGAGAAACACACGUUGUGGUAUAUAACCUGGCA belongs 0.36; to GUCCUCUUUCACGUGCGCGUGAAAGAGAGAAGUGAACCAGAGAAACACACGUUGUGGUAUCUUACCUGGUG, 0.286; to GUCCUCUUUCCCGUGCGCGUGAAAGAGAGCAGUGAACCAGAGAAACACACGUUGUGGUAUAUUACCUGGUA, 0.147. With GUCCUCUUUCACGUGCGCGUGGAAGAGAGAAGUGAAUCAGAGAAACACACGUUGUGGUAUAUUACCUGGUA, the self-cleavage turned out to be 0.646. Turning to GUCCUCUUUUACGUGCGCGUGAAAGCGAGAAGUGAACCAGAGAAACACACGUUGUGGUAUAUUACCUGGUA, the self-cleavage was 0.687. On to GUCCUCUUUCACCUGCGCGUGAAAGAGAGAAGUGAACCAGAGAAACACACGUUGUGGUAUAUUACCUGGCA, for which the self-cleavage came to 0.716. To GUCCUCUUUCACGUGCGCGUGAAAGAGAGGAGUGAACCAGAGAAACACACGUUGUGGUAUAGUACCUGGUA belongs 0.112; to GUCCUCUUUCACGUGCGCGUGAAAGAGAGAAGUGAACCAGAGAAACUCACGUUGUGGUAUAAUACCUGGUA, 0.114; to GUCCUCUUUCACGUGCGCGUGAAAGAGAGAAGUGAACAAGAGAAUCACACGUUGUGGUAUAUUACCUGGUA, 0.143.

As to GUCCUCUUUCACGUGCGGGUGAAAGAGAGAGGUGAACCAGAGAAACACACGUUGUGGUAUAUUACCUGGUA, the self-cleavage turned out to be 0.549. As to GUCCUCUUCCACGUGCGCGUGAAAGAGAGAAGUGAACCAGAGAAACACACGUUGUGGUAUGUUACCUGGUA, the self-cleavage came to 0.348. As to GUCCUCUUUCACGUGCGCGUGAAGGAGAGAAGUGAACCAGAGAAACACACGUUGUGGUAUAUUAGCUGGUA, the self-cleavage amounted to 0.296.

Consider GUCCUCUUUCAUGUGCGCGUGAAAGAGAGAAGUGAACCAGAGAAACACACGUUGUGGUAUAUUACCUGGAA, for which the self-cleavage came out at 0.746. For the variant GUCCCCUUUCACGUGCGCGUGAAAGAGAGAAGUGAACCAGAGAAACACACGUUGUGGUAUAUUAACUGGUA, the self-cleavage amounted to 0.511. To GUCCUCUUUCACGUGCGCGUGAAAGAAAGAAGUGAACCAGAGAAACACACGUUGUGGCAUAUUACCUGGUA belongs 0.516; to GUCCUCUUUCACGUGCGCGUGAAAGAGAGAAUUGAACCAGAGAAACACACGUUGUGGUUUAUUACCUGGUA, 0.0402. As for GUCCUCUUUCACGUGCGCGUGAAAGUGAGAAGGGAACCAGAGAAACACACGUUGUGGUAUAUUACCUGGUA, the self-cleavage turned out to be 0.107. The result for GCCCUCUUUCACGUGCGCGUGAAAGAGAGAAAUGAACCAGAGAAACACACGUUGUGGUAUAUUACCUGGUA reads 0.138; that for GUCCUCUUUCACGUGGGCGUGAAAGAGAGAAGUGAACCAGAGAAACACACGUUGUGUUAUAUUACCUGGUA, 0.119. GUCCUCUUUCACGUGCGCGUGAAAGAGAGAAGUGAACCAGAGAAACACACGUUGUGGUACAUUAUCUGGUA: the self-cleavage was found to be 0.909. Regarding GUCCUCUUUCACGUGCGCGUGAAAGAGAGAUGUGAAGCAGAGAAACACACGUUGUGGUAUAUUACCUGGUA, the self-cleavage came to 0.237. Turning to GUCCUCUUUCACGUGCGCGUGAAAGAGAGAAGUGAACCAGAGAAACACACGUUGUGGGAUAUCACCUGGUA, the self-cleavage came to 0.271. Turning to GUCCUCUUUCACGCGCGCGUGAAAGAGAGAAGUGAACCAGAGAAACACACGUUGUGGUAUGUUACCUGGUA, the self-cleavage amounted to 0.133. As for GUCCUCUUUUACGUGCGCGUUAAAGAGAGAAGUGAACCAGAGAAACACACGUUGUGGUAUAUUACCUGGUA, the self-cleavage came out at 0.815. On to GUCCUCUGUCACGUGCGCGUGAUAGAGAGAAGUGAACCAGAGAAACACACGUUGUGGUAUAUUACCUGGUA, for which the self-cleavage is 0.738. With GUCCUCUUUCACGUGCGCGUGAAAGAGAGAAGUGAACCAGAGAAAGACACGUUGUGGUAUAUUACCUGGUG, the self-cleavage was 0.166. For GACCUCUUUCACGUGCGCGUGAAAGAGAGAAGUGAACCAGAGAAACACACGUUGUGGUAUAUUACCUGAUA, the self-cleavage was 0.215.

Take GUCCUCUUUCACGUGCGCGUGAAAGAGAGAAGUGAACCAGAGUAACACACGUUAUGGUAUAUUACCUGGUA: the self-cleavage worked out at 0.128.

As to GUCCUCUUUCACGUGCUCGUGAAAGAGAGAAGUGAACCAGAGAAACACACGUUGUGGUAUUUUACCUGGUA, the self-cleavage was determined as 0.158.
